We go through 15 molecules from US10444224B2, “Method for RNA detection and quantification” (Cornell University, priority 2011, dated 2019).

Data set [1] has as its system endogenous SAM levels in living E. coli cells. The experiment in a line: Live cell imaging of SAM accumulation with the SAM sensor. The class given is cell-based. The settings on record: 50 μg/ml methionine plus inhibitor (25 μM adenosine periodate or 2.5 μM MT-DADMe-ImmA). Here is the method:
Expression of the SAM aptamer and intracellular imaging was performed as described above for the ADP sensor: BL21-A Star E. coli cells (Invitrogen) were transformed with 40 ng of plasmid DNA expressing the tRNA-sensor chimeras in pET28c under the control of a T7 promoter. Cells were plated, grown overnight and single colonies were picked for inoculation in LB-Kan. At OD600=0.4, 1 mM of IPTG was added to the culture and shaking was continued at 37° C. for more 2 hours. 100 μL of culture was then removed, spun down to pellet the culture, and resuspended in 2 mL of pH 6.0 M9 minimal media. A 200 μl aliquot of resuspended culture was then plated on PLL-coated 24-well glass-bottom dishes (MatTek) and incubated for 45 minutes at 37° C. Adherent cells were washed twice and then incubated with 200 μM DFHBI in pH 6.0 M9 minimal media for 2 hours at 37° C. Cells were then treated with methionine alone or methionine with inhibitors by adding 2 μl of a 100× stock of the compound to a final concentration of 50 μg/ml for L-methionine, 25 μM for adenosine periodate, and 2.5 μM for MT-DADMe-ImmA. Live fluorescence images were taken with a CoolSnap HQ2 CCD camera through a 60× oil objective mounted on a Nikon TE2000 microscope and analyzed with the NIS-Elements software. The filter set used was a sputter coated filter cube with excitation filter 470/40, dichroic mirror 495 (long pass) and emission filter 525/50 (Chroma Technology).
Cells transformed with SAM sensors were grown overnight in LB-Kan. Cultures were then diluted to OD600=0.1 in 200 mL LB-Kan and grown to OD600=0.4. Cells were then induced for 2 hours with 1 mM IPTG at 37° C. with constant shaking. The entire culture was centrifuged for 5 min at 1,000×g, pellets were resuspended and washed once with M9 media and then resuspended in […] of M9 media containing 200 μM DFHBI and divided into two samples. Methionine (50 μg/ml) or vehicle was then added to either sample and cultures were incubated between 32-37° C. 25 ml aliquots were removed from methionine- and vehicle-treated sample at each time point, centrifuged for 5 min at 1,000×g, and flash frozen in liquid nitrogen. Cells were thawed on ice and lysed by resuspending the pellet in 300 μl of cold 4% perchloric acid. Insoluble material was then pelleted by spinning at 1,000×g for 5 min and the supernatant was transferred to a dialysis spin column with a 10,000 molecular weight cut off (Amicon) and spun at 10,000×g for 10 min at 4° C. A portion of the flow through (50 μl) was then injected on a Zorbax C8 column (Agilent) on an Agilent 1100 HPLC. Samples were loaded and eluted for 15 min with an aqueous buffer containing 3.6% acetonitrile, 40 mM ammonium phosphate, and 5 mM sodium 1-heptanesulfonate which was brought to pH 5.0 with hydrochloric acid. After each sample was eluted, the column was washed with a gradient of 3.6-25% acetonitrile for 30 min prior to the next samples being injected. SAM standards were used to calibrate SAM levels measured using this assay.
Population analysis was carried out using NIS-Elements software. Individual cells in a captured field were manually traced as Region of Interests (ROIs) and tracked through the different time points of image capture. Fluorescence intensity was then calculated by dividing the total fluorescence by the area for each ROI, which gives the mean intensity per unit area. Fold increase in fluorescence over time is calculated as the ratio of mean intensity at a desired time point and at time zero. Values in fold increase in fluorescence over time are plotted as frequency distributions or further used in statistical analyses.

The nature of data set [2]: Spinach-based RNA sensor fluorescence in response to GTP. The data set is classed as biochemical.
Description: Dose-response curves for each sensor in response to the target metabolite were determined by measuring the increase in fluorescence as a function of increasing target concentration in the presence of a fixed concentration of RNA sensor (10-50 nM) and a fixed concentration of fluorophore (10 μM). Curves were determined using a nonlinear regression analysis in Prism software and matched by least squares fitting to a standard dose-response model for 1:1 complexation.
The optimal sensors were chosen based on their low fluorescence in the absence of metabolite and the relative increase in fluorescence upon binding to the metabolite.
Data set [3] can be described thus: Relative fluorescence of Spinach derivatives compared to Spinach. The class given is biochemical. The settings on record: same concentration of DFHBI in all samples. The source says:
Further modifications to Spinach were made in the same manner as described in Example 3, supra. These included modifications to the central loop, the stem formed between 5′ and 3′ ends, as well as stem-loops 1, 2, and 3. FIG. 17 illustrates the RNA sequences and secondary structures of Spinach (SEQ ID NO: 10), and five derivatives thereof, which are designated Spinach-2 (SEQ ID NO: 12), Spinach-4 (SEQ ID NO: 13), Spinach-6 (SEQ ID NO: 14), Spinach-7 (SEQ ID NO: 15), and Spinach-13 (SEQ ID NO: 11). RNA structure is shown as predicted by Mfold web-based software (Zuker, “Mfold Web Server for Nucleic Acid Folding and Hybridization Prediction,” Nucl. Acids Res. 31(13): 3406-3415 (2003), which is hereby incorporated by reference in its entirety). Substitutions present in the derivatives, relative to Spinach, are shown with a box formed around the base.
FIG. 18 is a graph illustrating the relative fluorescence of the Spinach derivatives compared to Spinach. In all samples shown, the same concentration of DFHBI, the Spinach-binding fluorophore, was included. […] In contrast, modifications to the 5′ and 3′ stem formation, the central loop, and stem-loop 2 were either tolerated or led to much improved fluorescence.

The nature of data set [4]: Emission and excitation of aptamer-DFHO complexes. The data set is classed as physicochemical. The conditions noted are these: aptamer with DFHO.
A short description of data set [5]: Emission and excitation of aptamer-DFAME complexes. The class given is physicochemical. The settings on record: aptamer with DFAME.
Data set [6] can be described thus: Emission and excitation of aptamer-MFHO complexes. The class given is physicochemical. The settings on record: aptamer with MFHO.
The mark [7] stands for this setting: 0.1 μM RNA, 10 μM DFHBI, 1 mM competing molecule.

“Also recorded” adds a separate entry of the source.

Take `CSC[C@H]1CN(Cc2c[nH]c3c(N)ncnc23)C[C@@H]1O` [MT-DADMe-ImmA, MT-DADMe-Immucillin-A]: in data set [1], the “effect on average SAM levels / accumulation versus vehicle” value is reported as “large decrease in the average accumulation of SAM” and the “effect on inter-cell variability in SAM levels versus vehicle” value is listed as “retained considerable variability in total SAM levels”. Besides, in data set [1] (listed as Mt-DADMe-ImmA), the “effect on average SAM levels / accumulation versus vehicle” value is “substantial reduction in average SAM accumulation levels; also recorded: much greater reduction in average SAM accumulation levels” and the “effect on inter-cell variability in SAM levels versus vehicle” value is recorded as “higher variability in SAM levels; also recorded: increased the variability in SAM levels”.

B1: GTP sensor: Spinach-based turn-on RNA sensor for GTP (nucleic acid)
chain: GACGCGACUGAAUGAAAUGGUGAAGGACGGGUCCAGCAGAAGAGCACGUAUACGCAAGCUUGUUGAGUAGAGUGUGAGCUCCGUAACUAGUCGCGUC
modifications: listed as RNA, chemistry not given here
A word on the EC50: it is the concentration that produces a half-maximal response. With B1, the “increase in fluorescence in the presence of GTP” value in data set [2] (0.1 μM RNA, 10 μM DFHBI, 1 mM GTP, versus no GTP) came to 15 fold. In data set [2] (setting [7]), the “molecular discrimination: ATP” value is “Only baseline fluorescence”; the “molecular discrimination: GMP” value is “exhibits fluorescence, although to a lesser extent; also recorded: moderate preference for GTP over GMP”; the “molecular discrimination: cGMP and guanosine” value is “minimal fluorescence; also recorded: tenfold less fluorescence”. Besides, the EC50 in data set [2] (predicted by curve fitting, read-out: half-maximal fluorescence (EC50), GTP) was 7.7 mM.

B2: Spinach-4: derivative of Spinach (nucleic acid)
chain: GACGCGACCGAAUGAAAUGGUGAAGGACGGGUCCAGCUGCGGCUGCUUCGGCAGCCGCAGCUUGUUGAGUAGAGUGUGAGCUCCGUAACUGGUCGCGUC
modifications: listed as RNA, chemistry not given here
Turning to B2, the “relative fluorescence compared to Spinach” value (“relative fluorescence” below) in data set [3] is “enhanced fluorescence”.

B3: SEQ ID NO: 53: RNA aptamer listed for fluorophore DFHO (nucleic acid)
chain: GGGAGACGCAACUGAAUGAAAGACCUGACGAGGGUGAAGCGGUUGUCUGCUUCGGCAGCAUUGAAAGGGUGGGGUGUAGGAUGGUCCGUAACUAGUCGCGUCAC
modifications: listed as RNA, chemistry not given here
On to B3, for which, in data set [4], the Em entry is listed as “Em = 560 nm” and the Ex entry was “Ex = 520 nm”.

B4: SEQ ID NO: 57: RNA aptamer listed for fluorophore DFAME (nucleic acid)
chain: GGGAGACGCAACUGAAUGAAAGACCUGACGAGGGUGAAGCGGUUGUCUGCUUCGGCAGCAUUGAAAGGGUGGGGUGUAGGAUGGUCCGUAACUAGUCGCGUCAC
modifications: listed as RNA, further chemistry not given here
Regarding B4, in data set [5], the Em result is on record as “Em = 570 nm” and the Ex result was “Ex = 620 nm”.

B5: SEQ ID NO: 54: RNA aptamer listed for fluorophore DFHO (nucleic acid)
chain: GGGAGACGCAACUGAAUGAAGCGAGGAAGGAGGUCUGAGGAGGUCACUGCUUCGACAGUGGGGCGUUUUCCCUGGGGGUGUUGAUCCGUAACUAGUCGCGUCAC
modifications: listed as RNA, chemistry not given here
In the case of B5, in data set [4], the Em entry is “Em = 545 nm” and the Ex entry was “Ex = 500 nm”.

B6: SEQ ID NO: 55: RNA aptamer listed for fluorophore MFHO (nucleic acid)
chain: GGGAGACGCAACUGAAUGAAGCGAGGAAGGAGGUCUGAGGAGGUCACUGCUUCGACAGUGGGGCGUUUUCCCUGGGGGUGUUGAUCCGUAACUAGUCGCGUCAC
modifications: listed as RNA, chemistry not given here
For B6, in data set [6], the Em result was “Em = 430 nm” and the Ex entry is “Ex = 580 nm”.

B7: Spinach-7: derivative of Spinach (nucleic acid)
chain: GACGCGACCGAAUGAAAUGGUGAAGGACGGGUCCAGCCGGCUGCUUCGGCAGCCGGCUUGUUGAGUAGAGUGUGAGCUCCGUAACUGGUCGCGUC
modifications: listed as RNA, chemistry not given here
Regarding B7, in data set [3], the “relative fluorescence” value is “enhanced fluorescence”.

B8: Spinach-2: derivative of Spinach (nucleic acid)
chain: GACGCGACCGAAUGAAAUGGUGAAGGACGGGUCCAGGUGUGGCUGCUUCGGCAGUGCAGCUUGUUGAGUAGAGUGUGAGCUCCGUAACUGGUCGCGUC
modifications: listed as RNA, chemistry not given here
As to B8, the “relative fluorescence” value in data set [3] is recorded as “comparable fluorescence”.

B9: SEQ ID NO: 52: RNA aptamer listed for fluorophore DFHO (nucleic acid)
chain: GGGCGACUCACUAUAGGGAGACGCAACUGAAUGAAGCGAAGAAGGAGGUCUGAGGAGGUCACUGCUUCGGCAGUGGGGCGUUUUCCCUGGGGGUGUUGAUCCGUAACUAGUCGCGUCAC
modifications: listed as RNA, chemistry not given here
Regarding B9, in data set [4], the Em result is reported as “Em = 540 nm” and the Ex result is “Ex = 490 nm”.

B10: SEQ ID NO: 58: RNA aptamer listed for fluorophore DFAME (nucleic acid)
chain: GGGAGACGCAACUGAAUGAAGCCUCCGUGCGACAUCAUGCGCGCGACUGCUUCGGCAGAGGUGGGUGGUGUGGAGGAGUAUCUGUCCGUAACUAGUCGCGUCAC
modifications: listed as RNA, further chemistry not given here
B10: in data set [5], the Em entry is “Em = 610 nm” and the Ex result is listed as “Ex = 510 nm”.

B11: SEQ ID NO: 51: RNA aptamer listed for fluorophore DFHO (nucleic acid)
chain: GGGAGACGCAACUGAAUGAAGUUGGCCCAUGAUAGAAAGCAGGGUGCUGCUUCGGCAGUUGUCGGAGGGUGGGGGGAUUGACUAUCCGUAACUAGUCGCGUCAC
modifications: listed as RNA, chemistry not given here
As for B11, in data set [4], the Em result is recorded as “Em = 550 nm” and the Ex entry is listed as “Ex = 480 nm”.

B12: Spinach-13: derivative of Spinach (nucleic acid)
chain: GACGCGACCUAUGAAAUGGUGAAGGGACGGGUCCCAGCGGCUGCUUCGGCAGCCGCUGUUGAGUAGAGUGUGAGCUCCGUAACUGGUCGCGUC
modifications: listed as RNA, chemistry not given here
On to B12, for which, in data set [3], the “relative fluorescence” value is “greatly reduced fluorescence”.

B13: Spinach-6: derivative of Spinach (nucleic acid)
chain: GACGCGACCGAAUGAAAUGGUGAAGGACGGGUCCAGGUGUGGCUGCUUCGGCAGUGCAGCUUGUUGCGUCGAGUGUGAGCUCGACGUAACUGGUCGCGUC
modifications: listed as RNA, chemistry not given here
Regarding B13, in data set [3], the “relative fluorescence” value was “greatly reduced fluorescence”.

B14: SEQ ID NO: 56: RNA aptamer listed for fluorophore MFHO (nucleic acid)
chain: GGGAGACGCAACUGAAUGAAUGAGUAUGAUGCACGGUUAAAAUCCACUGCUUCGGCAGGAGUUGCGUUAGGAGGGUCGGGAGUCUCCGUAACUAGUCGCGUCAC
modifications: listed as RNA, chemistry not given here
As to B14, in data set [6], the Em entry is recorded as “Em = 570 nm” and the Ex entry is on record as “Ex = 550 nm”.
